Non-standard residues stand in square brackets, D forms with d. No end group written: not given here. *: point of attachment. APBA‑IA = cysteine S-alkylated with APBA-IA: S-[2-oxo-2-({3-[4-acetyl-3-boronophenoxy]propyl}amino)ethyl]-L-cysteine (Cm), CC(=O)c1ccc(OCCCNC(=O)C*)cc1B(O)O; FAM = 5(6)-carboxyfluorescein, amide on Dap side-chain amine; Dap = NC[C@H](N)C(=O)O
Target: T1, human serum albumin (human, UniProt P02768 25-609)
T1 construct: Reagent protein; also called HSA
Assay: fluorescence anisotropy, 500 nM peptide with varied protein concentrations in PBS pH 7.4
Description: FIGS. 16A-16B show further evaluation of the protein-enhanced bacterial staining by KAM5. (A) Flow cytometry comparison of HSA and BSA in enhancing KAM5 binding to S. aureus. (B) Assessing protein binding of KAM5 using fluorescence anisotropy, for which various concentrations of BSA or HSA were delivered to a 96-well plate (Corning 3603) in PBS (pH 7.4). Peptide was added at a final concentration of 500 nM and incubated for 1 hour. Anisotropy values were measured (Ex: 495 nm, Em: 532 nm) and plotted as an average of three trials with standard deviations. Fluorescein was used as a negative control. The results clearly show binding of KAM5 to these serum proteins.
The cell staining ability of KAM5 was also evaluated via fluorescence microscopy with a TAMRA labeled peptide. […] On the contrary, the BSA addition elicited stronger fluorescence staining of the bacteria, consistent with the flow cytometry results (FIG. 2D). […] To better understand this phenomenon, KAM5 was measured binding to these serum proteins via a fluorescence anisotropy experiment (FIGS. 16A-16B). KAM5 did show binding to both BSA and HAS at high protein concentrations, which is perhaps not surprising given these proteins display a large number of surface lysine residues.

T1 sequence (P02768 25-609 limits assumed): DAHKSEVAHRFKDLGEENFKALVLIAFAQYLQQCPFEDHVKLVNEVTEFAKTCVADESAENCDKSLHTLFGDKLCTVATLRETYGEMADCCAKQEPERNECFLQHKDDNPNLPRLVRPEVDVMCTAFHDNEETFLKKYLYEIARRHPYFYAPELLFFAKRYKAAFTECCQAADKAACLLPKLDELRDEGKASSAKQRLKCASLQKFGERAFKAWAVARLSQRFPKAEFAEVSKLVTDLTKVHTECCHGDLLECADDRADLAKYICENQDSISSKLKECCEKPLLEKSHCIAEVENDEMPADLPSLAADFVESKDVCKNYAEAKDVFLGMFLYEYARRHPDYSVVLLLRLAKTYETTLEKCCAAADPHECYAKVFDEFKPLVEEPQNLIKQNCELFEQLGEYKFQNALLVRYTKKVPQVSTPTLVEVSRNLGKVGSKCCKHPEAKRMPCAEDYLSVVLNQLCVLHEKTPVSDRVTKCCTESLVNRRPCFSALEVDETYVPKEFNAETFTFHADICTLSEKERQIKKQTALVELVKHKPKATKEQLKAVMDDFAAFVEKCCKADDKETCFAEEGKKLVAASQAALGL

B1: KAM5 (fluorescein/FAM labeled, APBA-IA modified): ACmVSPRSHECmGGGDap* (peptide)
peptide: AC(APBA‑IA)VSPRSHEC(APBA‑IA)GGG[Dap](FAM)-NH2
**Q.** Does B1 bind?
**A.** Result: binds
